Assay results reported in US6855515.

T1: Ac-DEVD-CHO, N-(N-Ac-Asp-Glu-Val)-3-amino-4-oxobutanoic acid
T1 chain: DEVD

T2: PMS2, P54278
T2 chain: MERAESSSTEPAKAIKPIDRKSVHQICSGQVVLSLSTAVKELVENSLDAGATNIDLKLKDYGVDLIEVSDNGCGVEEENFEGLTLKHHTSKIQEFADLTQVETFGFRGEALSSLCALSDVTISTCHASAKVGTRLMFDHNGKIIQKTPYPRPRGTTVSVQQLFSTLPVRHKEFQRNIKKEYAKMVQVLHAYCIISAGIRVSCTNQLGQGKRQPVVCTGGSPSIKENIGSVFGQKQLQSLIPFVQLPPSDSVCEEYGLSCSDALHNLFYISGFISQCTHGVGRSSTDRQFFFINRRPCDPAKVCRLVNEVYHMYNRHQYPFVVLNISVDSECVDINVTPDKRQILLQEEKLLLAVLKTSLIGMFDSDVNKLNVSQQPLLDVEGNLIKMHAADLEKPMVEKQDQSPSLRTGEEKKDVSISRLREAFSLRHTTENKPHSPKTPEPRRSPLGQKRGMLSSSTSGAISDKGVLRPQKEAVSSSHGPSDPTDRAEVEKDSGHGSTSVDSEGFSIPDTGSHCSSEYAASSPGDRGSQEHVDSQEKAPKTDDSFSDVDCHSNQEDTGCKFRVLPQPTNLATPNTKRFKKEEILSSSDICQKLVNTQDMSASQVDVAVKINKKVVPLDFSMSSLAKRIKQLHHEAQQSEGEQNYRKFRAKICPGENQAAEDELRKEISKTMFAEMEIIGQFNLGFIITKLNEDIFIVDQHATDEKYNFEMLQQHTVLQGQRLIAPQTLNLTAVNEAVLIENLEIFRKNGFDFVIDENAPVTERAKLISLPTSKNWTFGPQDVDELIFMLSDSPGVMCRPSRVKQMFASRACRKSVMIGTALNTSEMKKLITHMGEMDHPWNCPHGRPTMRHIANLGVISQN

T3: PMS1, P54277
T3 chain: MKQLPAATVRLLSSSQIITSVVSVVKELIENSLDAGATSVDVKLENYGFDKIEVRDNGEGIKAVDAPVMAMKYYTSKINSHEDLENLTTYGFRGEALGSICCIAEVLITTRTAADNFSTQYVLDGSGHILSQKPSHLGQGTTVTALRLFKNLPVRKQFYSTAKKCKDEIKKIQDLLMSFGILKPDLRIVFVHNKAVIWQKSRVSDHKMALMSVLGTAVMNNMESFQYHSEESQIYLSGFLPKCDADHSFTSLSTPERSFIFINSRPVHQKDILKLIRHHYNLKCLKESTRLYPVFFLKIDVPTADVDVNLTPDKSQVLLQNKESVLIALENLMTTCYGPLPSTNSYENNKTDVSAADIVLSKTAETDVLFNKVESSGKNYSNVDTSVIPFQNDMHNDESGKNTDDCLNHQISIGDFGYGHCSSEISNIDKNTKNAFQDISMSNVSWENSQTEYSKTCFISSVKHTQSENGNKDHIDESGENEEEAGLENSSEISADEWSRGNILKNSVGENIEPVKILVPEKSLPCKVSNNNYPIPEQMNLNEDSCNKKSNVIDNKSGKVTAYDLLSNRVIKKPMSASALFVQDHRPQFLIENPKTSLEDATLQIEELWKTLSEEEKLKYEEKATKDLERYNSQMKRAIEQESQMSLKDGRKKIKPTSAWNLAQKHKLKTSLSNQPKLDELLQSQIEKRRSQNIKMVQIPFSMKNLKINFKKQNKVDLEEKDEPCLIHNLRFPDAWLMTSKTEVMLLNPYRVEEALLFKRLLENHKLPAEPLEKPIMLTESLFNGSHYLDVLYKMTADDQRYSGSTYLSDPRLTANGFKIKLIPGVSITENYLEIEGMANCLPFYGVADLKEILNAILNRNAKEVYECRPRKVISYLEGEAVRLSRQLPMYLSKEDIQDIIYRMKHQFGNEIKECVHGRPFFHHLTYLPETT

T4: SRP-72, O76094
T4 chain: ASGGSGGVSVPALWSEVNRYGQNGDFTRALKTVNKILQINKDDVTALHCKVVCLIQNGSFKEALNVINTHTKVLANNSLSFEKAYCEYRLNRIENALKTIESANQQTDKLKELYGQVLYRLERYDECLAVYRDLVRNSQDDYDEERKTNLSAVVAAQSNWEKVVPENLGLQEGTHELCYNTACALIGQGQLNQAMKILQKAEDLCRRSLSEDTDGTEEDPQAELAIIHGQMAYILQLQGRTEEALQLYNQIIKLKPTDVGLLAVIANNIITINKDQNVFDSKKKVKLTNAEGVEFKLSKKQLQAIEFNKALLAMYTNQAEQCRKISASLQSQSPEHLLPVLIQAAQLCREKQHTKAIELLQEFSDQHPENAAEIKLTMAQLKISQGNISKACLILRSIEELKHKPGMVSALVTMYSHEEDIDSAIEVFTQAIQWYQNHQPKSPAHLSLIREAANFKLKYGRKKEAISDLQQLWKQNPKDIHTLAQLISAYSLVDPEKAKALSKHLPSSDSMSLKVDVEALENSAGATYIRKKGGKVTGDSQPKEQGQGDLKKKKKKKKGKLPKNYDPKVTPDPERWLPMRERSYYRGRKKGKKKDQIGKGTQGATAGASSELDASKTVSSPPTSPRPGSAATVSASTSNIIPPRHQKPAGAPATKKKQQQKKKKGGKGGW

T5: Topoisomerase I, P11387
T5 chain: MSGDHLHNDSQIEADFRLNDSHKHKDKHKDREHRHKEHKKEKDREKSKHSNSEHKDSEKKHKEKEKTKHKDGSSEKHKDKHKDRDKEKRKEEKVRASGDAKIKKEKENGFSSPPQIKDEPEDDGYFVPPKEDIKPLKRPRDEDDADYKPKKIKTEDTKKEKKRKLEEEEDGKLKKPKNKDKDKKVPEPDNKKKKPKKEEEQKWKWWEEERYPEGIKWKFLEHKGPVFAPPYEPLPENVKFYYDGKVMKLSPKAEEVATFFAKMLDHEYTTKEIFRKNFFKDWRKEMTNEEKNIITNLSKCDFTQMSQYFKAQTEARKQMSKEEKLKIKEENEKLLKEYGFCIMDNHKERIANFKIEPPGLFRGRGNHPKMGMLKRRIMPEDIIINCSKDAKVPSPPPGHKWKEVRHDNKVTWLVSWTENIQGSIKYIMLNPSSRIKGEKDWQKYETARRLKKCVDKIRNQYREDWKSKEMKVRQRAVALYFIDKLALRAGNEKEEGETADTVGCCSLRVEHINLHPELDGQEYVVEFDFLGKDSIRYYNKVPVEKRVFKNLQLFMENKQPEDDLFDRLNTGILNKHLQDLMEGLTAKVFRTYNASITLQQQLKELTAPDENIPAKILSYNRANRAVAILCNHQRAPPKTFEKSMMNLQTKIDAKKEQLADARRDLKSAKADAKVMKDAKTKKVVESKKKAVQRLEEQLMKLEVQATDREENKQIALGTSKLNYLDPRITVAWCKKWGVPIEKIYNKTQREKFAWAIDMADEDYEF


Assays:
[1] = target: poly(ADP-ribose) polymerase
[2] = target: T1, Ac-DEVD-CHO, …
[3] = target: nuclear mitotic apparatus protein
Sequence of nuclear mitotic apparatus protein (chain, as listed by the source): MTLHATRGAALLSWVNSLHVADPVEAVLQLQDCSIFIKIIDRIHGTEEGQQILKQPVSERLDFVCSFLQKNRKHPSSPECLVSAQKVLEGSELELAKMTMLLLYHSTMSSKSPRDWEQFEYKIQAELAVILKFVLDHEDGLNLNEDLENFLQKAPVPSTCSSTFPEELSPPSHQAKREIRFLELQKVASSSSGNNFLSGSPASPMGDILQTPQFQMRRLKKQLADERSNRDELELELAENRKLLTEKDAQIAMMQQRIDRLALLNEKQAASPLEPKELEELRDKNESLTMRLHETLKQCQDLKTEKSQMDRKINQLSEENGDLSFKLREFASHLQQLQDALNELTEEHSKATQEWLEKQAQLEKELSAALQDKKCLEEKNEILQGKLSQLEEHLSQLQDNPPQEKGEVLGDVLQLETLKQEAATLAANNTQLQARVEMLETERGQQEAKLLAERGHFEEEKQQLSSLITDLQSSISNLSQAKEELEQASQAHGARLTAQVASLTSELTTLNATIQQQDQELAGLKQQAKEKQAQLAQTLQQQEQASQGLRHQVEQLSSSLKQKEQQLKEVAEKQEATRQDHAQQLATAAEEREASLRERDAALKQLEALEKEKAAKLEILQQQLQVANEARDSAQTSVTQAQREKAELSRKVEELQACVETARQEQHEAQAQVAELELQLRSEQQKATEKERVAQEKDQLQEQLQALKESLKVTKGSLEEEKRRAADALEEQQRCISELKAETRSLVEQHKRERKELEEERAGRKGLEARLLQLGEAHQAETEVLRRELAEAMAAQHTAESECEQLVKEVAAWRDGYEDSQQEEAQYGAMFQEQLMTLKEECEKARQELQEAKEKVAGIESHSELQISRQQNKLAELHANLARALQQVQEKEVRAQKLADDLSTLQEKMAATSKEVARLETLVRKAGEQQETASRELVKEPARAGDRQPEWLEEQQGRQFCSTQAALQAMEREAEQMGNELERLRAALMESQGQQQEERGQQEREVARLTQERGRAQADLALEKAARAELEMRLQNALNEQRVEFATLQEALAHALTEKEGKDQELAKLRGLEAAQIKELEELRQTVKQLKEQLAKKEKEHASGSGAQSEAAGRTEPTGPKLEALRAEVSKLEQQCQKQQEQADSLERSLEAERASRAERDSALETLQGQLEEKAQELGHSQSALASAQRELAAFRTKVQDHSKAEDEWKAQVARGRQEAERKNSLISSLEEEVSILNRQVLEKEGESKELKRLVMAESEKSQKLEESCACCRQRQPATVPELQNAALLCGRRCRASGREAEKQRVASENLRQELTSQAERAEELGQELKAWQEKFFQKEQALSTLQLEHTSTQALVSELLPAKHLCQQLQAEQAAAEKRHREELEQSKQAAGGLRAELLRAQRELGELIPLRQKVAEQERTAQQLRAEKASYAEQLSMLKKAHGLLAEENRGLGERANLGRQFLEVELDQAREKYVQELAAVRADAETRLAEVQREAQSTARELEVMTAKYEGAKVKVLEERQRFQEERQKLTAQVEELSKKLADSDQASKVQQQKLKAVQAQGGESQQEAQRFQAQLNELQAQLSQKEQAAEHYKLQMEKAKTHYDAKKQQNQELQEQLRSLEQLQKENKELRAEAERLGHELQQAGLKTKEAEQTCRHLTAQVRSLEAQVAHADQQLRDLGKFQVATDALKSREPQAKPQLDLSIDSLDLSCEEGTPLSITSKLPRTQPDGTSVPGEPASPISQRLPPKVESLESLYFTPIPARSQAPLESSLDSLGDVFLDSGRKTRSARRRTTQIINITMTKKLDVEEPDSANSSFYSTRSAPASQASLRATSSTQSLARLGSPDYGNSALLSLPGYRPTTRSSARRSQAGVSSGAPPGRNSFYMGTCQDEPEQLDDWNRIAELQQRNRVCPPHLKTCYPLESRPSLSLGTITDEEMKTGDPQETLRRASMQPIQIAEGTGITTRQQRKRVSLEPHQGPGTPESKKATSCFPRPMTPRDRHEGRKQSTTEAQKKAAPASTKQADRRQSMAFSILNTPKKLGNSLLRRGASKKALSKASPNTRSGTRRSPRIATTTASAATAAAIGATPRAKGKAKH

PMS2, P54278 = target: T2, PMS2, P54278
[4] = target: RNA polymerase II large subunit, P24928
PMS1, P54277 = target: T3, PMS1, P54277
SRP-72, O76094 = target: T4, SRP-72, O76094
Topoisomerase I, P11387 = target: T5, Topoisomerase I, P11387

Sequence of Ku-70, P12956 (P12956 2-609): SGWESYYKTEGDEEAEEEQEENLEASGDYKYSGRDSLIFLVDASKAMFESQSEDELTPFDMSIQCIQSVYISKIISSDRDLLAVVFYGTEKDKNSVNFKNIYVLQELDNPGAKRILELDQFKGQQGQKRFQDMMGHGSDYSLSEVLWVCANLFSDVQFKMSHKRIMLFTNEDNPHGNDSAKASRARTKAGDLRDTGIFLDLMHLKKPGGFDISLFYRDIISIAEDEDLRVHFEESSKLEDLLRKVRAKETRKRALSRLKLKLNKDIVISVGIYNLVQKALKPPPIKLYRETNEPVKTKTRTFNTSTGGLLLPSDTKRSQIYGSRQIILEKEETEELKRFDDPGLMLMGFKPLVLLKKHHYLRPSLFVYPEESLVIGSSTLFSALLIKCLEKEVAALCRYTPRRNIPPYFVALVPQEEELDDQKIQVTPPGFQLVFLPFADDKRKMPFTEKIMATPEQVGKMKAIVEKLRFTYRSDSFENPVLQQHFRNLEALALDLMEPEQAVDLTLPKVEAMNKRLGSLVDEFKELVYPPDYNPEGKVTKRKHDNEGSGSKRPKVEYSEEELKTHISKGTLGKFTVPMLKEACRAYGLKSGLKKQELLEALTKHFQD
Sequence of U1-70 kDa, P08621 (P08621 whole entry): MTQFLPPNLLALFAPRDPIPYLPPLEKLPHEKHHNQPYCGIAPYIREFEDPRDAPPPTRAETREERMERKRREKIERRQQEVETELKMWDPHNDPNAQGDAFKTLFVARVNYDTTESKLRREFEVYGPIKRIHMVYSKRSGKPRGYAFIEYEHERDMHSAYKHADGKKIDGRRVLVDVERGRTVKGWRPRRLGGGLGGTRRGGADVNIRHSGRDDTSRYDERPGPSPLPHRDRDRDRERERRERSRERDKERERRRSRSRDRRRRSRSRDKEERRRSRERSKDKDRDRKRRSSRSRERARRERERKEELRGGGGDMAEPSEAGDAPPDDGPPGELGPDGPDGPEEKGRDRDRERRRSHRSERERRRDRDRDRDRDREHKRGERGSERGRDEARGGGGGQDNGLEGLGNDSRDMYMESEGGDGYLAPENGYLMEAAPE

Protein	kcat/Km [1] [M⁻¹ s⁻¹]	generation of caspase-3 substrate fragments in HeLa lysate, immunoblotting [2]	kcat/Km [3] [M⁻¹ s⁻¹]	cleavage of radiolabelled IvTT protein (PMS2, P54278)	cleavage in iodoacetamide-treated HeLa lysate with 50 nM caspase-8 (Mi-2)	cleavage in iodoacetamide-treated HeLa lysate with 50 nM caspase-8 [1]	cleavage in iodoacetamide-treated HeLa lysate with 50 nM caspase-8 [4]	cleavage in iodoacetamide-treated HeLa lysate with 50 nM caspase-8 (U1-70 kDa, P08621)	cleavage of radiolabelled IvTT protein (PMS1, P54277)	cleavage in iodoacetamide-treated HeLa lysate with 50 nM caspase-8 (SRP-72, O76094)	cleavage in iodoacetamide-treated HeLa lysate with 50 nM caspase-8 (Ki-67, P46013)	cleavage in iodoacetamide-treated HeLa lysate with 50 nM caspase-8 (Ku-70, P12956)	cleavage in iodoacetamide-treated HeLa lysate with 50 nM caspase-8 [3]	cleavage in iodoacetamide-treated HeLa lysate with 50 nM caspase-8 (Topoisomerase I, P11387)
caspase-3 (protein) SGISLDNSYKMDYPEMGLCIIINNKNFHKSTGMTSRSGTDVDAANLRETFRNLKYEVRNKNDLTREEIVELMRDVSKEDHSKRSSFVCVLLSHGEEGIIFGTNGPVDLKKITNFFRGDRCRSLTGKPKLFIIQACRGTELDCGIETDSGVDDDMACHKIPVEADFLYAYSTAPGYYSWRNSKDGSWFIQSLCAMLKQYADKLEFMHILTRVNRKVATEFESFSFDATFHAKKQIPCIVSMLTKELYFYH	5e+06	entirely abolished by 100 nM Ac-DEVD-CHO	500000	–	–	–	–	–	–	–	–	–	–	–
caspase-8 (protein) chain 1: SESQTLDKVYQMKSKPRGYCLIINNHNFAKAREKVPKLHSIRDRNGTHLDAGALTTTFEELHFEIKPHDDCTVEQIYEILKIYQLMDHSNMDCFICCILSHGDKGIIYGTDGQEAPIYELTSQFTGLKCPSLAGKPKVFFIQACQGDNYQKGIPVETD chain 2: LSSPQTRYIPDEADFLLGMATVNNCVSYRNPAEGTWYIQSLCQSLRERCPRGDDILTILTEVNYEVSNKDDKKNMGKQMPQPTFTLRKKLVFPSD	–	–	–	also not cleaved by purified caspase-8	No cleavage	No cleavage	No cleavage	No cleavage	also not cleaved by purified caspase-8	No cleavage	No cleavage	No cleavage	No cleavage	No cleavage
